One assay has as its target T1, GST–lamin A (human, UniProt P02545 1-646).
T1 sequence (looked up): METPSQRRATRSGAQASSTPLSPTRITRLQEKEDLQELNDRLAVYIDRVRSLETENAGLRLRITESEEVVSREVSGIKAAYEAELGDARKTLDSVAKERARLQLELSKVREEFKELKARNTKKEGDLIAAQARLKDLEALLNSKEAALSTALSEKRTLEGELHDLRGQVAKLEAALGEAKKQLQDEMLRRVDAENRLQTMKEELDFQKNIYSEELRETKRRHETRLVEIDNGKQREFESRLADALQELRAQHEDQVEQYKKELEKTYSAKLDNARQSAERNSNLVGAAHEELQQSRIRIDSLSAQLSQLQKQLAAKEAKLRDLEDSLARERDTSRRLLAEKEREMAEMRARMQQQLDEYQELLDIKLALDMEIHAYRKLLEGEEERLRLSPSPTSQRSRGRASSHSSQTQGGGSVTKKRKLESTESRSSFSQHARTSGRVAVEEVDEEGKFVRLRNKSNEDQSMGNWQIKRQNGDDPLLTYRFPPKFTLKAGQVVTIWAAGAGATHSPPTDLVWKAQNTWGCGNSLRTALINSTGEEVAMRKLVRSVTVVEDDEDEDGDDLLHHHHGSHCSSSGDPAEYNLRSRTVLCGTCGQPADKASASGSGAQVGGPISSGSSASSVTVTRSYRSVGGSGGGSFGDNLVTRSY
The experiment in a line: pull-down.

The target in another assay is T2, GST–prelamin A (human, UniProt P02545 1-664).
T2 sequence (looked up): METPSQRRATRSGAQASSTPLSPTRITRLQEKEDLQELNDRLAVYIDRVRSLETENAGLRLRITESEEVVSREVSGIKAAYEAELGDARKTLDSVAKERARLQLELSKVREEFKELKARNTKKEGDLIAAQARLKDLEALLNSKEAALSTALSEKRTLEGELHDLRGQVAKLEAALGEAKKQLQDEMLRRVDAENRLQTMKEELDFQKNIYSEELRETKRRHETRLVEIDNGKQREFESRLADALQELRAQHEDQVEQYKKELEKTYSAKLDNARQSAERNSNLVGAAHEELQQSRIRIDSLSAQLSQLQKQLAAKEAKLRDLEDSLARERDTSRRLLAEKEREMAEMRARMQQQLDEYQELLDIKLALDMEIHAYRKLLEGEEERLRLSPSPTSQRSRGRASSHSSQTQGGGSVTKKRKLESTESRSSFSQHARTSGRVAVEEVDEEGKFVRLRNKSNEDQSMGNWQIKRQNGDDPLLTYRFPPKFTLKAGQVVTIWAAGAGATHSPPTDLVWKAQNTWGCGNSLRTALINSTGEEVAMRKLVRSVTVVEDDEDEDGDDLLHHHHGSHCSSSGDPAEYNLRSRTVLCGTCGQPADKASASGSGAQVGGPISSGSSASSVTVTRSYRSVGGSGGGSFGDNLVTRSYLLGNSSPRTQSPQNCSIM
The assay can be described thus: pull-down.

B1: CK2β (in vitro pull-down) (natural protein)
chain: not shown
On to B1, for which the binding result with GST–lamin A and in the assay with GST–prelamin A was “binds” throughout.
